The results in this text go back to patent US20170266311A1 (published 2017).

For assay [1], the target named is T1, human NaPi2b (sodium-dependent phosphate transport protein 2B, SLC34A2) (human, UniProt O95436 1-690).
T1 construct: also called NaPiIIb; Npt2
T1 sequence: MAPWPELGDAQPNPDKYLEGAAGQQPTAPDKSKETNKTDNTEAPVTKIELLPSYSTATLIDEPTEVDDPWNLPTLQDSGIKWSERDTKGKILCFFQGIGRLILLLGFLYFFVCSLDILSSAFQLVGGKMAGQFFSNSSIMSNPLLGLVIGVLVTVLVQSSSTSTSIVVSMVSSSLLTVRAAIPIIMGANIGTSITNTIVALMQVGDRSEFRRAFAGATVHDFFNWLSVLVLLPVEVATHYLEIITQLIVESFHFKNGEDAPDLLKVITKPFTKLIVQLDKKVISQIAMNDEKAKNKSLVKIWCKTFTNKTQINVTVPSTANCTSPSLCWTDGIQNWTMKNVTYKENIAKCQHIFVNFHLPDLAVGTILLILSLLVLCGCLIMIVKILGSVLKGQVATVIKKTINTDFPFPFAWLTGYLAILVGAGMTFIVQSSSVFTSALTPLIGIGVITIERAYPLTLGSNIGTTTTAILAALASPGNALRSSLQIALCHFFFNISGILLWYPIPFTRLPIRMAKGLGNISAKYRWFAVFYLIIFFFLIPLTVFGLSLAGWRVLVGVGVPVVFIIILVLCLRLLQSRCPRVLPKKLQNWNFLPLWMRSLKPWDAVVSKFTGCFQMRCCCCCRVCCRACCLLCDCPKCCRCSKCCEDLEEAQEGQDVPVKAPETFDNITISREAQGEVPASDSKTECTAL
As to the kind of experiment: flow cytometry on TOV-21G cells, Alexa Fluor 647 goat anti-human IgG detection, one site specific binding fit. The method, then:
(§1) TOV-21G or OVCAR3 cells were grown overnight to approximately 90% confluent cultures in media, then were released from the plate surface by treatment with Trypsin-EDTA (Gibco-Thermo Fisher Scientific, USA). The detached cells were washed once with ice cold media containing 6% goat serum and resuspended in the same media. 50,000 cells were aliquoted per well of a V-bottom, 96-well plate and incubated with a range of test articles concentrations (0.23-500 nM) in 100 μl Media (1:1 mixture MCDB105 (1.5 g/L sodium bicarbonate) and Medium 199 (2.2 g/L sodium bicarbonate plus 15% FBS)) with 6% goat serum on ice for 3 hours. The cells were then washed once with ice cold PBS and resuspended in 150 μl Media with 2% goat serum and 6 μg/ml of a secondary fluorescently labeled antibody, Alexa Fluor® 647-labelled goat anti-human IgG (Life Technologies, Cat# A-21445) for 1 hour on ice. The cells were washed once with ice cold PBS and suspended in 150 μl of ice cold PBS with 1% paraformaldehyde. The amount of fluorescence bound per cell was determined by running 5000 cells for each treatment on a MACSQuant flow cytometer (Miltenyi Biotec, Bergisch Gladbach, Germany). The median fluorescence value for each treatment was graphed, and the binding constant, KD was calculated for each test article with GraphPad Prism software by non-linear regression using the one site specific binding model.
Background: Flow cytometry measures light scatter and fluorescence of single cells or particles in a stream.

The target of assay [2] is T1, human NaPi2b (sodium-dependent …). Briefly: flow cytometry on OVCAR3 cells, Alexa Fluor 647 goat anti-human IgG detection, one site specific binding fit. Here is the method: as §1

B1: XMT 1535 antibody (antibody, human IgG1, kappa, V domains shown)
VH: QVQLVQSGAEVVKPGASVKMSCKASGYTFTGYNIHWVKQAPGQGLEWIGAIYPGNGDTSYKQKFRGRATLTADTSTSTVYMELSSLRSEDSAVYYCARGETARATFAYWGQGTLVTVSS
VL: DIQMTQSPSSLSASVGDRVTITCSASQDIGNFLNWYQQKPGKTVKVLIYYTSSLYSGVPSRFSGSGSGTDYTLTISSLQPEDFATYYCQQYSKLPLTFGQGTKLELKR
notes: Full IgG1
Broadly, the Kd is the free concentration of one partner at which half of the binding sites on the other are occupied at equilibrium, for simple one-to-one binding. A high value points to a looser complex. On to B1, for which the equilibrium dissociation constant (Kd) in assay [1] was found to be 2.46 nM; in assay [2] it was 6.59 nM.

B2: Example 1C, XMT 1535-(EG2-MI-(10 kDa PHF-BA-(AF-HPA-Ala))) (antibody, human IgG1, kappa, V domains shown)
VH: QVQLVQSGAEVVKPGASVKMSCKASGYTFTGYNIHWVKQAPGQGLEWIGAIYPGNGDTSYKQKFRGRATLTADTSTSTVYMELSSLRSEDSAVYYCARGETARATFAYWGQGTLVTVSS
VL: DIQMTQSPSSLSASVGDRVTITCSASQDIGNFLNWYQQKPGKTVKVLIYYTSSLYSGVPSRFSGSGSGTDYTLTISSLQPEDFATYYCQQYSKLPLTFGQGTKLELKR
modifications: EG2-MI-(10 kDa PHF-BA-(AF-HPA-Ala)) polymer-drug scaffolds attached by maleimide to cysteines of the partially reduced antibody; positions and chain not stated; DAR about 11:1 to about 15:1
In the case of B2, the results for the Kd in assay [1] and in assay [2] were 3.97 nM and 3.84 nM, respectively.
